In publication PMC2778132:

Target: endogenous αIIbβ3 integrin receptor of activated platelets (human (endogenous in platelets)) (UniProt P08514)

reduction of adhesion of TRAP-activated platelets to fibrinogen-coated wells (1 µM peptide, compared to N-PTB^D66E): 7%
Binder: RGDS [RGDS peptide]
